Source: the RNAGym collection of RNA variant scans (doi:10.1021/acssynbio.7b00057)

B1: Pistol ribozyme (parent)
chain: GGGUCGUUGUUCCAUAAUCGCGUGGAUAUGGCACGCAAGUUUCUACCGGGCACCGUAAAUGUCCGACUGGAGCCGUUCGGGCGGCUAUAAACAGACCUCAGGCCCGAAGCGUGGCGGCACCUGCCGCCGGUGGUAAAAAAGAUCGGAAGAGCACACGUCU

Variants of: B1
Assay: aptazyme ON/OFF ratio, guanine; higher = stronger switching; co-transcriptional cleavage with and without guanine

Point of comparison: U7C U8C G9A U10G C13G, “aptazyme ON/OFF ratio” value 1.12. Against it:
- U7C U8C G9A U11G C12G C13A — higher, 1.23
- U7C U8C G9A U11G C12G C13G — lower, 1.11
- U7C U8C G9A U11G C12G C13U — lower, 1.11
- U7C U8C G9A U10A U11C C13G — lower, 1.04
- U7C U8C G9A U10A U11C C13U — lower, 1.11
- U7C U8C G9A U10A U11C C13A — higher, 1.16
- U7C U8C G9A U11G C13A — higher, 1.3
- U7C U8C G9A U11G C13U — higher, 1.27
- U7C U8C G9A U11G C13G — higher, 1.28
- U7C U8C G9A U10C U11A C12A C13U — higher, 1.18
- U7C U8C G9A U10C U11A C12A C13G — higher, 1.4
- U7C U8C G9A U10C U11A C12A C13A — higher, 1.18
- U7C U8C G9C U10A C12G C13U — lower, 1.1
- U7C U8C G9C U10A C12G C13A — lower, 1.11
- U7C U8C G9C U10A C12G C13G — higher, 1.17
- U7C U8C G9C C12G C13G — lower, 1.07
- U7C U8C G9C C12G C13U — lower, 1.07
- U7C U8C G9C C12G C13A — lower, 1.08
- U7C U8C G9A U10C U11C C12A C13G — higher, 1.17
- U7C U8C G9A U10C U11C C12A C13A — higher, 1.39
- U7C U8C G9A U10C U11C C12A C13U — higher, 1.31
- U7C U8C G9A U10G C12G C13U — higher, 1.16
- U7C U8C G9A U10G C12G C13G — higher, 1.16
- U7C U8C G9A U10G C12G C13A — higher, 1.2
- U7C U8C G9A U11G C12G — higher, 1.35
- U7C U8C G9A U11G C12A — higher, 1.37
- U7C U8C G9A U11G C12U — higher, 1.34
- U7C U8C G9C U10C C12A C13U — lower, 1.1
- U7C U8C G9C U10C C12A C13G — lower, 1.07
- U7C U8C G9C U10C C12A C13A — lower, 1.06
- U7C U8C G9A U10A U11A C13G — higher, 1.2
- U7C U8C G9A U10A U11A C13U — higher, 1.25
- U7C U8C G9A U10G C12U C13U — higher, 1.42
- U7C U8C G9A U10G C12U C13G — higher, 1.16
- U7C U8C G9A U10G C12U C13A — higher, 1.15
- U7C U8C G9A U10G U11A C12A C13G — higher, 1.2
- U7C U8C G9A U10G U11A C12A C13A — higher, 1.17
- U7C U8C G9A U10G U11A C12A C13U — higher, 1.16
- U7C U8C G9A U11A C12G — higher, 1.21
- U7C U8C G9A U11A C12A — higher, 1.21
- U7C U8C G9A U11A C12U — lower, 1.06
- U7C U8C G9A U10C U11G C13A — lower, 1.11
- U7C U8C G9A U10C U11G C13U — higher, 1.32
- U7C U8C G9A U10C U11G C13G — higher, 1.15
- U7C U8C G9C U10A — higher, 2.7
- U7C U8C G9C U10C — higher, 3.53
- U7C U8C G9A U10C C13G — higher, 1.35
- U7C U8C G9A U10C C13U — higher, 1.52
- U7C U8C G9A U10C C13A — higher, 1.47
- U7C U8C G9C U10A U11C C13U — lower, 1.1
- U7C U8C G9C U10A U11C C13G — lower, 1.1
- U7C U8C G9C U10A U11C C13A — lower, 1.08
- U7C U8C G9C C12A C13G — lower, 1.06
- U7C U8C G9C C12A C13U — higher, 1.13
- U7C U8C G9C C12A C13A — lower, 1.08
- U7C U8C G9C U10A C13U — higher, 1.35
- U7C U8C G9C U10A C13A — higher, 1.16
- U7C U8C G9C U10A C13G — higher, 1.15
- U7C U8C G9A U10G C13U — higher, 1.37
- U7C U8C G9A U10G C13A — higher, 1.27
- U7C U8C G9A U10C U11G — higher, 1.24
- U7C U8C G9A U10C U11A — higher, 1.8
- U7C U8C G9A U10C U11C — higher, 3.61
- U7C U8C G9C U10C C13G — the same, 1.12
- U7C U8C G9C U10C C13A — lower, 1.04
- U7C U8C G9C U10C C13U — higher, 2.85
- U7C U8C G9A U11C C13G — lower, 1.05
- U7C U8C G9A U11C C13A — higher, 1.22
- U7C U8C G9A U11C C13U — higher, 1.29
- U7C U8C G9C U10A C12A C13A — lower, 1.09
- U7C U8C G9C U10A C12A C13G — higher, 1.14
- U7C U8C G9C U10A C12A C13U — higher, 1.21
- U7C U8C G9C U10C U11C C12A — lower, 1.04
- U7C U8C G9C U10C U11C C12G — higher, 1.13
- U7C U8C G9C U10C U11C C12U — lower, 1.06
- U7C U8C G9A U10G U11A C12U C13G — higher, 1.19
- U7C U8C G9A U10G U11A C12U C13A — higher, 1.19
- U7C U8C G9A U10G U11A C12U C13U — higher, 1.23
- U7C U8C G9C U10C C12A — lower, 1.08
- U7C U8C G9C U10C C12G — higher, 1.14
- U7C U8C G9C U10C C12U — higher, 1.94
- U7C U8C G9A U10C U11G C12U C13G — higher, 1.33
- U7C U8C G9A U10C U11G C12U C13U — higher, 1.23
- U7C U8C G9A U10C U11G C12U C13A — higher, 1.45
- U7C U8C G9A U10C C12U C13G — higher, 1.26
- U7C U8C G9A U10C C12U C13U — higher, 1.32
- U7C U8C G9A U10C C12U C13A — higher, 1.22
- U7C U8C G9C U10A U11A C12U C13G — higher, 1.2
- U7C U8C G9C U10A U11A C12U C13A — lower, 1.03
- U7C U8C G9C U10A U11A C12U C13U — higher, 1.17
- U7C U8C G9C U10A U11A C12A C13U — higher, 1.13
- U7C U8C G9C U10A U11A C12A C13G — lower, 1.03
- U7C U8C G9C U10A U11A C12A C13A — lower, 1.09
- U7C U8C G9C U10C U11A C12G C13U — lower, 1.05
- U7C U8C G9C U10C U11A C12G C13A — lower, 1.11
- U7C U8C G9C U10C U11A C12G C13G — higher, 1.13
- U7C U8C G9A U11A C12U C13U — higher, 1.21
- U7C U8C G9A U11A C12U C13A — higher, 1.26
- U7C U8C G9A U11A C12U C13G — higher, 1.25
- U7C U8C G9A U11A C13U — higher, 1.32
- U7C U8C G9A U11A C13A — higher, 1.26
- U7C U8C G9A U11A C13G — higher, 1.13
- U7C U8C G9A U10G C12A C13G — lower, 1.09
- U7C U8C G9A U10G C12A C13U — lower, 1.06
- U7C U8C G9A U10G C12A C13A — higher, 1.13
- U7C U8C G9C U10C C12G C13U — lower, 1.04
- U7C U8C G9C U10C C12G C13G — lower, 1.04
- U7C U8C G9C U10C C12G C13A — higher, 1.16
- U7C U8C G9A U11G C12A C13A — higher, 1.3
- U7C U8C G9A U11G C12A C13G — higher, 1.25
- U7C U8C G9A U11G C12A C13U — higher, 1.59
- U7C U8C G9A U10A U11G C13A — higher, 1.21
- U7C U8C G9A U10A U11G C13U — higher, 1.21
- U7C U8C G9A U10A U11G C13G — higher, 1.19
- U7C U8C G9A U10G C12U — higher, 1.46
- U7C U8C G9A U10G C12G — higher, 1.22
- U7C U8C G9A U10G C12A — higher, 1.21
- U7C U8C G9A U11G C12U C13U — higher, 1.35
- U7C U8C G9A U11G C12U C13A — higher, 1.22
- U7C U8C G9A U11G C12U C13G — higher, 1.15
- U7C U8C G9A U10C C12A C13U — higher, 1.21
- U7C U8C G9A U10C C12A C13G — higher, 1.2
- U7C U8C G9A U10C C12A C13A — higher, 1.52
- U7C U8C G9C U10A C12U C13U — lower, 1.11
- U7C U8C G9C U10A C12U C13G — higher, 1.13
- U7C U8C G9C U10A C12U C13A — lower, 1.11
- U7C U8C G9A U10G U11A C13A — lower, 1.1
- U7C U8C G9A U10G U11A C13G — higher, 1.25
- U7C U8C G9A U10G U11A C13U — lower, 1.07
- U7C U8C G9C U10A U11G C12U — lower, 1.05
- U7C U8C G9C U10A U11G C12G — higher, 1.14
- U7C U8C G9C U10A U11G C12A — higher, 1.16
- U7C U8C G9A U11C C12U — higher, 1.66
- U7C U8C G9A U11C C12A — higher, 1.51
- U7C U8C G9A U11C C12G — higher, 1.17
- U7C U8C G9C U10A U11G C12U C13G — lower, 1.08
- U7C U8C G9C U10A U11G C12U C13U — lower, 1.1
- U7C U8C G9C U10A U11G C12U C13A — higher, 1.15
- U7C U8C G9A U10C — higher, 1.45
- U7C U8C G9A U10G — higher, 1.56
- U7C U8C G9C U10A U11A C12U — lower, 1.09
- U7C U8C G9C U10A U11A C12A — higher, 1.21
- U7C U8C G9C U10A U11A C12G — lower, 1.08
- U7C U8C G9C U10A U11G C12A C13A — lower, 1.07
- U7C U8C G9C U10A U11G C12A C13U — higher, 1.14
- U7C U8C G9C U10A U11G C12A C13G — the same, 1.12
- U7C U8C G9A U10A U11C C12U C13A — higher, 1.15
- U7C U8C G9A U10A U11C C12U C13G — higher, 1.2
- U7C U8C G9A U10A U11C C12U C13U — higher, 1.13
- U7C U8C G9A U11C C12U C13U — higher, 1.18
- U7C U8C G9A U11C C12U C13A — higher, 1.19
- U7C U8C G9A U11C C12U C13G — lower, 1.08
- U7C U8C G9A U11A C12G C13A — lower, 1.1
- U7C U8C G9A U11A C12G C13U — higher, 1.23
- U7C U8C G9A U11A C12G C13G — higher, 1.17
- U7C U8C G9C C12U C13G — lower, 1.11
- U7C U8C G9C C12U C13U — higher, 1.14
- U7C U8C G9C C12U C13A — higher, 1.16
- U7C U8C G9C C12A — higher, 1.26
- U7C U8C G9C C12U — higher, 1.17
- U7C U8C G9C C12G — higher, 1.18
- U7C U8C G9A U10A U11G — higher, 1.55
- U7C U8C G9A U10A U11C — higher, 1.21
- U7C U8C G9C U10C C12U C13U — lower, 1.09
- U7C U8C G9C U10C C12U C13G — higher, 1.14
- U7C U8C G9C U10C C12U C13A — lower, 1.1
